± gives the uncertainty stated by the source.
Assay: amyloid nucleation score (Sup35N fusion, yeast selection) (log enrichment); library NNK1; higher = more nucleation; inactive = no reads after selection
Method in brief: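 Three technical output replicates were used for random libraries. Psi-negative yeast expressing peptides of 20 random codons fused to Sup35N were induced with 100 μM copper sulfate for 24 hours and grown 7 days at 30°C on medium lacking adenine and uracil, and input and output plasmid inserts were Illumina-sequenced, excluding sequences with under 100 input reads. The nucleation score is the DiMSum log enrichment of output over input reads, centred on the mode score of non-aggregating sequences.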

| Substance | amyloid nucleation score |
| --- | --- |
| FLRVILRVYLAVLRGNRQCN | -0.716 ± 0.36 |
| FLVWIMGSFPTGRGANRRNS | -0.465 ± 0.51 |
| FLWIA | -0.012 ± 0.56 |
| FLYSSLFDKVNCCNRPPVSS | -0.014 ± 0.7 |
| FMCVGSYDPYPWP | 0.659 ± 0.51 |
| FMDKVFSIP | -0.101 ± 0.78 |
| FMGIGPDVEDLLW | -0.538 ± 0.41 |
| FMLSFDTTFPLKVLIRTSPE | -0.858 ± 0.85 |
| FMPYWNTLNFMSYGVRLIHK | 0.231 ± 0.65 |
| FMSICPSTNGRCACRWLRM | 0.857 ± 0.98 |
| FMVACWHSKWAYDNCYYNSS | inactive |
| FMWKINWRENLYRLYSFSAY | -0.11 ± 0.51 |
| FMYILYYDMWYACASFR | inactive |
| FNHMLSMVGSRVCYLAMSFV | 0.17 ± 0.58 |
| FNLGTNK | -0.442 ± 0.3 |
| FNLISGKIGYRLLQTCIMMM | -0.963 ± 0.51 |
| FNLSLLRSSCAVH | 1.04 ± 0.62 |
| FNRCMFHFGDEVVKELL | -0.376 ± 0.91 |
| FNRKISFFCN | -0.393 ± 0.4 |
| FNVKSSMRNPGCIPWHRATY | -0.616 ± 1.7 |
| FNWDGQFAVCMWKS | -0.221 ± 0.38 |
| FPMWYYH | -0.366 ± 0.74 |

| Substance | amyloid nucleation score |
| --- | --- |
| FPSLFFLLA | inactive |
| FPWSGAWMD | 0.029 ± 1 |
| FQATR | -0.238 ± 0.32 |
| FQGRNYECIFVDFLRSQKGV | 0.292 ± 1.2 |
| FQLRNL | 0.414 ± 0.34 |
| FQVFYFGCGRHVMVSSYRWV | -0.363 ± 0.54 |
| FRDFWLDNVLNMMVGCAARD | -0.692 ± 1.2 |
| FRELVDERLRRASQFHWFHF | 0.557 ± 0.8 |
| FRFSGHWGETIASRTG | 0.376 ± 0.95 |
| FRFVG | -1.53 ± 0.83 |
| FRKCVGAQGGSGSWNGCPSE | 1.99 ± 0.23 |
| FRKLAIFHLAE | 0.207 ± 0.69 |
| FRLGPLEQ | -1.61 ± 1.7 |
| FRLRL | 0.019 ± 0.83 |
| FRNCVF | -0.141 ± 0.49 |
| FRPMEWLTFCSVRGLLLTIP | inactive |
| FRRIFSWACPV | 0.352 ± 0.58 |
| FRSELMFSVLPFLGASSVAC | 1.44 ± 0.69 |
| FRSFKNTY | -1.3 ± 0.45 |
| FRSFLLPR | 0.644 ± 0.54 |
| FRTHRPTIFHFIGMRLRTLA | 0.399 ± 0.91 |
| FSALLIPENISD | -1.25 ± 1.7 |

| Substance | amyloid nucleation score |
| --- | --- |
| FSASLNDLGLQKRVNVSVD | -0.413 ± 0.49 |
| FSCYM | 0.245 ± 0.9 |
| FSDTRTGGDSTPKN | 0.108 ± 0.36 |
| FSDVQCG | inactive |
| FSFYS | -0.44 ± 0.65 |
| FSLNQCVKGHVFGATICTLR | 1.86 ± 0.43 |
| FSMVAPTVILLKYYN | -0.111 ± 0.21 |
| FSPFLIMVSESPFHPIPELR | -0.991 ± 2.4 |
| FSRISCFP | 0.638 ± 0.61 |
| FSRNAAYMIICSTGRRKFWH | 3.75 ± 0.074 |
| FSSCRPMIYLRCTEYNG | -0.41 ± 1.9 |
| FSSNLLECRCLWKTQASNST | 0.271 ± 0.33 |
| FSTFYY | inactive |
| FSTLICIGVE | -0.35 ± 0.65 |
| FSVNILQQFIMGQSRICVGA | -0.044 ± 0.38 |
| FSVYAWGVFFDAVWFSCAVA | 1.29 ± 0.84 |
| FSWTYVYYNN | 0.433 ± 0.89 |
| FSYRWGLVFSFRDVKLL | 2.27 ± 0.11 |
| FTCFATCCVLMNNVYYFMTL | 5.085 ± 0.05 |
| FTCLVNSNSPL | 0.606 ± 0.71 |
| FTCMCH | inactive |
| FTFKWMGSPWLWR | 0.485 ± 1.2 |

| Substance | amyloid nucleation score |
| --- | --- |
| FTFSFLYFFQWCHTGAPARF | 0.602 ± 0.73 |
| FTIIFSTYISMVVVDLRVVP | -0.409 ± 0.36 |
| FTISGLYSFFVSLLGKEYYG | -0.074 ± 0.43 |
| FTMLYSVYPSGRPGSQSGR | 1.92 ± 0.21 |
| FTQRSSVR | 0.651 ± 0.7 |
| FTRDVYRWKYPNYLVKYSTP | -0.199 ± 0.85 |
| FTSLYSNILHKSTCLQ | 0.288 ± 0.9 |
| FTSRRATCDIGNSMNACFER | 1.5 ± 0.73 |
| FTVLSVVSALQGGRHYPLMG | 0.357 ± 0.33 |
| FVFLISAL | -0.617 ± 0.5 |
| FVGLVDN | 0.051 ± 0.49 |
| FVGSRRGLARVAEYGWLYHG | -0.464 ± 0.74 |
| FVHVYLERDRPNLTPFI | 0.084 ± 0.33 |
| FVIDACIFC | 9.445 ± 0.071 |
| FVLRTFQVDNSRQDTTNVST | 0.309 ± 0.48 |
| FVMRAFNLIRWVGSACNLET | inactive |
| FVNFWN | 0.473 ± 0.53 |
| FVPVKFITIGSYVLHTGSLL | 0.834 ± 0.73 |
| FVSPVTSSQNSPVIVVRSLL | -0.561 ± 0.48 |
| FVYLR | 0.98 ± 0.55 |
| FWNLVF | 1.36 ± 0.64 |
| FWSLYD | 0.003 ± 0.4 |

| Substance | amyloid nucleation score |
| --- | --- |
| FYASQRSTPHAVFLCNALKV | 0.304 ± 0.52 |
| FYCVDN | 0.547 ± 0.65 |
| FYFRHSVLMCKHLFQFDYKE | 0.668 ± 0.45 |
| FYGTLVCVRRYSVVLNSNLE | 0.751 ± 0.93 |
| FYLLTGLFSQVGTLLFHWSR | -0.819 ± 0.51 |
| FYVLATFSNC | 0.618 ± 0.4 |
| FYVMCSARSQHAFSNKYLGY | -0.165 ± 0.26 |
| GAGIENPSASVIMKREWEVL | 0.382 ± 0.44 |
| GAVARIIDAVCVRLV | -0.643 ± 1.1 |
| GAVIRRWVIGSGALRDSCND | 0.382 ± 1.2 |
| GCCSEDFNINGVFCSCPKFC | 7.157 ± 0.057 |
| GCDYARPINWCDTPYGSFNL | -2.49 ± 2.4 |
| GCGRGMLLGFAPWITCPWMS | 0.971 ± 0.49 |
| GCRGFLIPRMVYS | -0.398 ± 0.97 |
| GCSIEFFDYGGY | -0.183 ± 0.74 |
| GCYWIMAMGQILRRLEDAAG | 1.14 ± 0.72 |
| GDDVRRPVVSVHNSRGYSFG | -0.235 ± 0.32 |
| GDGVGFVLITHWDVVDDMGC | 0.724 ± 0.93 |
| GDIRGQMCMWYLW | -1.73 ± 2.7 |
| GDRRLSVLGPYMARSVWGER | -0.242 ± 0.31 |
| GDSVESQILLVVGCIY | -0.416 ± 1.2 |
| GEERHAAYTNWFFLRCLLTY | -0.046 ± 0.65 |

| Substance | amyloid nucleation score |
| --- | --- |
| GEFVWKEASATCCSWGKLRR | 0.425 ± 0.72 |
| GEQGNPIIESSREFSSVEHN | 4.33 ± 0.078 |
| GESCLDSRFRNDDNR | 0.09 ± 0.33 |
| GESRGS | 0.473 ± 0.43 |
| GETLEVWFFRRRVIRWR | inactive |
| GFFLSPLVRIISMTEMKVMK | 0.571 ± 1.2 |
| GFGSMLVEVTLYSAVAVAAR | 0.852 ± 0.52 |
| GFGWLCYCGPYNLGRFSLSV | -0.124 ± 0.66 |
| GFLNYHWAGSYFERGM | 3.04 ± 0.13 |
| GFPSRSIHFKLYLAANMQ | 1.07 ± 0.53 |
| GFSMTKCAYTNTH | 1.68 ± 0.17 |
| GFVGFTGF | 0.308 ± 0.77 |
| GGDRGHMFGMKSATVRWLAY | 0.572 ± 0.45 |
| GGESQFLGFTHCKLAFCSWW | 0.236 ± 0.5 |
| GGFFALTYVWSHVHRWS | inactive |
| GGFHYAVDWSCLRNIVWADL | -1.2 ± 2.4 |
| GGLCTLVVAVGDSWIDRR | -0.34 ± 0.43 |
| GGLRWRRCFLP | -1.58 ± 0.93 |
| GGQFHEEFSNEINEVQDCVL | -0.15 ± 0.75 |
| GGQSS | 2.97 ± 0.16 |
| GGRSS | -0.058 ± 0.58 |
| GGSDFWIGN | 0.277 ± 0.48 |
